# B1: hAb001-17 (antibody, V domains shown)
# VH: QVQLVQSGAEVKKPGASVKVSCKASGYSFTNYYMHWVRQAPGQRLEWMGWTYPGNNNIKYNEKFKGRVTITRDTSASTAYMELSSLRSEDTAVYYCARDGYGYYFFDYWGQGTLVTVSS
# VL: DIVMTQSPDSLAVSLGERATINCKSSQSLLNNRTRKNYLAWYQQKPGQPPKLLIYWASTRESGVPDRFSGSGSGTDFTLTISSLQAEDVAVYYCKQSYTLRTFGGGTKLEIK
# notes: Humanized; constant regions not specified
# B2: hAb001-18 (antibody, V domains shown)
# VH: QVQLVQSGAEVKKPGASVKVSCKASGYSFTNYYMHWVRQAPGQRLEWMGWTYPGNNNIKYNEKFKGRVTITRDTSASTAYMELSSLRSEDTAVYYCARDGYGYYFFDYWGQGTLVTVSS
# VL: DIVMTQSPDSLAVSLGERATINCKSSQSLLNNRTRKNYLAWYQQKPGQPPKLLIYWASTRESGVPDRFTGSGSGTDFTLTISSLQAEDVAVYYCKQSYTLRTFGGGTKLEIK
# notes: as for B1
# B3: hAb001-19 (antibody, V domains shown)
# VH: QVQLVQSGAEVKKPGASVKVSCKASGYSFTNYYMHWVRQAPGQRLEWMGWTYPGNNNIKYNEKFKGRVTITRDTSASTAYMELSSLRSEDTAVYYCARDGYGYYFFDYWGQGTLVTVSS
# VL: DIVMTQSPDSLAVSLGERATMSCKSSQSLLNNRTRKNYLAWYQQKPGQPPKLLIYWASTRESGVPDRFSGSGSGTDFTLTISSLQAEDVAVYYCKQSYTLRTFGGGTKLEIK
# notes: as for B1
# B4: hAb001-20 (antibody, V domains shown)
# VH: QVQLVQSGAEVKKPGASVKVSCKASGYSFTNYYMHWVRQAPGQRLEWMGWTYPGNNNIKYNEKFKGRVTITRDTSASTAYMELSSLRSEDTAVYYCARDGYGYYFFDYWGQGTLVTVSS
# VL: DIVMTQSPDSLAVSLGERATMSCKSSQSLLNNRTRKNYLAWYQQKPGQPPKLLIYWASTRESGVPDRFTGSGSGTDFTLTISSLQAEDVAVYYCKQSYTLRTFGGGTKLEIK
# notes: as for B1
# B5: hAb001-24 (antibody, V domains shown)
# VH: QVQLVQSGAEVKKPGASVKVSCKASGYSFTNYYMHWVRQAPGQRLEWIGWTYPGNNNIKYNEKFKGRVTITADTSASTAYMELSSLRSEDTAVYYCARDGYGYYFFDYWGQGTLVTVSS
# VL: DIVMTQSPDSLAVSLGERATMSCKSSQSLLNNRTRKNYLAWYQQKPGQPPKLLIYWASTRESGVPDRFTGSGSGTDFTLTISSLQAEDVAVYYCKQSYTLRTFGGGTKLEIK
# notes: as for B1
# B6: hAb001-25 (antibody, V domains shown)
# VH: QVQLVQSGAEVKKPGASVKVSCKASGYSFTNYYMHWVRQAPGQRLEWIGWTYPGNNNIKYNEKFKGRATITADTSASTAYMELSSLRSEDTAVYYCARDGYGYYFFDYWGQGTLVTVSS
# VL: DIVMTQSPDSLAVSLGERATINCKSSQSLLNNRTRKNYLAWYQQKPGQPPKLLIYWASTRESGVPDRFSGSGSGTDFTLTISSLQAEDVAVYYCKQSYTLRTFGGGTKLEIK
# notes: as for B1
# B7: hAb001-29 (antibody, V domains shown)
# VH: QVQLVQSGAEVKKPGASVKVSCKASGYSFTNYYMHWVKQAPGQRLEWIGWTYPGNNNIKYNEKFKGRATITADTSASTAYMELSSLRSEDTAVYYCARDGYGYYFFDYWGQGTLVTVSS
# VL: DIVMTQSPDSLAVSLGERATINCKSSQSLLNNRTRKNYLAWYQQKPGQPPKLLIYWASTRESGVPDRFSGSGSGTDFTLTISSLQAEDVAVYYCKQSYTLRTFGGGTKLEIK
# notes: as for B1
# B8: hAb001-30 (antibody, V domains shown)
# VH: QVQLVQSGAEVKKPGASVKVSCKASGYSFTNYYMHWVKQAPGQRLEWIGWTYPGNNNIKYNEKFKGRATITADTSASTAYMELSSLRSEDTAVYYCARDGYGYYFFDYWGQGTLVTVSS
# VL: DIVMTQSPDSLAVSLGERATINCKSSQSLLNNRTRKNYLAWYQQKPGQPPKLLIYWASTRESGVPDRFTGSGSGTDFTLTISSLQAEDVAVYYCKQSYTLRTFGGGTKLEIK
# notes: as for B1
# B9: hAb001-31 (antibody, V domains shown)
# VH: QVQLVQSGAEVKKPGASVKVSCKASGYSFTNYYMHWVKQAPGQRLEWIGWTYPGNNNIKYNEKFKGRATITADTSASTAYMELSSLRSEDTAVYYCARDGYGYYFFDYWGQGTLVTVSS
# VL: DIVMTQSPDSLAVSLGERATMSCKSSQSLLNNRTRKNYLAWYQQKPGQPPKLLIYWASTRESGVPDRFSGSGSGTDFTLTISSLQAEDVAVYYCKQSYTLRTFGGGTKLEIK
# notes: as for B1
# B10: hAb001-32 (antibody, V domains shown)
# VH: QVQLVQSGAEVKKPGASVKVSCKASGYSFTNYYMHWVKQAPGQRLEWIGWTYPGNNNIKYNEKFKGRATITADTSASTAYMELSSLRSEDTAVYYCARDGYGYYFFDYWGQGTLVTVSS
# VL: DIVMTQSPDSLAVSLGERATMSCKSSQSLLNNRTRKNYLAWYQQKPGQPPKLLIYWASTRESGVPDRFTGSGSGTDFTLTISSLQAEDVAVYYCKQSYTLRTFGGGTKLEIK
# notes: as for B1
# B11: hAb008-21 (antibody, V domains shown)
# VH: QVQLVQSGAEVKKPGASVKVSCKASGYTFTDYTVNWVRQAPGQRLEWIGYINPFNSYTKYNQKFKDRVTITADTSASTAYMELSSLRSEDTAVYYCANSVSTYWGQGTTVTVSS
# VL: DVVMTQSPLSLPVTLGQPASISCKSSQSLLDSDGKTYLNWFQQRPGQSPRRLIQLVSKLNSGVPDRFSGSGSGTDFTLKISRVEAEDVGVFYCWQGTHFPRTFGGGTKLEIK
# notes: as for B1
# B12: hAb008-16 (antibody, V domains shown)
# VH: QVQLVQSGAEVKKPGASVKVSCKASGYTFTDYTVNWVRQAPGQRLEWMGYINPFNSYTKYNQKFKDRVTITRDTSASTAYMELSSLRSEDTAVYYCARSVSTYWGQGTTVTVSS
# VL: DVVMTQSPLSLPVTLGQPASISCKSSQSLLDSDGKTYLNWFQQRPGQSPRRLIYLVSKLNSGVPDRFSGSGSGTDFTLKISRVEAEDVGVYYCWQGTHFPRTFGGGTKLEIK
# notes: as for B1
# B13: hAb008-17 (antibody, V domains shown)
# VH: QVQLVQSGAEVKKPGASVKVSCKASGYTFTDYTVNWVRQAPGQRLEWMGYINPFNSYTKYNQKFKDRVTITRDTSASTAYMELSSLRSEDTAVYYCARSVSTYWGQGTTVTVSS
# VL: DVVMTQSPLSLPVTLGQPASISCKSSQSLLDSDGKTYLNWFQQRPGQSPRRLIQLVSKLNSGVPDRFSGSGSGTDFTLKISRVEAEDVGVFYCWQGTHFPRTFGGGTKLEIK
# notes: as for B1
# B14: hAb008-18 (antibody, V domains shown)
# VH: QVQLVQSGAEVKKPGASVKVSCKASGYTFTDYTVNWVRQAPGQRLEWMGYINPFNSYTKYNQKFKDRVTITRDTSASTAYMELSSLRSEDTAVYYCARSVSTYWGQGTTVTVSS
# VL: DVVMTQSPLSLPVTLGQPASISCKSSQSLLDSDGKTYLNWLQQRPGQSPRRLIQLVSKLNSGVPDRFSGSGSGTDFTLKISRVEAEDVGVFYCWQGTHFPRTFGGGTKLEIK
# notes: as for B1
# B15: hAb008-19 (antibody, V domains shown)
# VH: QVQLVQSGAEVKKPGASVKVSCKASGYTFTDYTVNWVRQAPGQRLEWMGYINPFNSYTKYNQKFKDRVTITRDTSASTAYMELSSLRSEDTAVYYCARSVSTYWGQGTTVTVSS
# VL: DVVMTQSPLSLPVTLGQPASISCKSSQSLLDSDGKTYLNWLLQRPGQSPRRLIQLVSKLNSGVPDRFSGSGSGTDFTLKISRVEAEDVGVFYCWQGTHFPRTFGGGTKLEIK
# notes: as for B1
# B16: hAb008-20 (antibody, V domains shown)
# VH: QVQLVQSGAEVKKPGASVKVSCKASGYTFTDYTVNWVRQAPGQRLEWIGYINPFNSYTKYNQKFKDRVTITADTSASTAYMELSSLRSEDTAVYYCANSVSTYWGQGTTVTVSS
# VL: DVVMTQSPLSLPVTLGQPASISCKSSQSLLDSDGKTYLNWFQQRPGQSPRRLIYLVSKLNSGVPDRFSGSGSGTDFTLKISRVEAEDVGVYYCWQGTHFPRTFGGGTKLEIK
# notes: as for B1
# B17: hAb008-22 (antibody, V domains shown)
# VH: QVQLVQSGAEVKKPGASVKVSCKASGYTFTDYTVNWVRQAPGQRLEWIGYINPFNSYTKYNQKFKDRVTITADTSASTAYMELSSLRSEDTAVYYCANSVSTYWGQGTTVTVSS
# VL: DVVMTQSPLSLPVTLGQPASISCKSSQSLLDSDGKTYLNWLQQRPGQSPRRLIQLVSKLNSGVPDRFSGSGSGTDFTLKISRVEAEDVGVFYCWQGTHFPRTFGGGTKLEIK
# notes: as for B1
# B18: hAb008-23 (antibody, V domains shown)
# VH: QVQLVQSGAEVKKPGASVKVSCKASGYTFTDYTVNWVRQAPGQRLEWIGYINPFNSYTKYNQKFKDRVTITADTSASTAYMELSSLRSEDTAVYYCANSVSTYWGQGTTVTVSS
# VL: DVVMTQSPLSLPVTLGQPASISCKSSQSLLDSDGKTYLNWLLQRPGQSPRRLIQLVSKLNSGVPDRFSGSGSGTDFTLKISRVEAEDVGVFYCWQGTHFPRTFGGGTKLEIK
# notes: as for B1
# B19: hAb008-24 (antibody, V domains shown)
# VH: QVQLVQSGAEVKKPGASVKVSCKASGYTFTDYTVNWVRQAPGQRLEWIGYINPFNSYTKYNQKFKDRATITADTSASTAYMELSSLRSEDTAVYFCANSVSTYWGQGTTVTVSS
# VL: DVVMTQSPLSLPVTLGQPASISCKSSQSLLDSDGKTYLNWFQQRPGQSPRRLIYLVSKLNSGVPDRFSGSGSGTDFTLKISRVEAEDVGVYYCWQGTHFPRTFGGGTKLEIK
# notes: as for B1
# Molecular target: T1, human CD3e/g antigen (ACRO, catalog number CDG-H52W5) (human, UniProt P07766 23-126; P09693 23-116)
# T1 construct: Bought reagent used as the Biacore analyte; also called hCD3e/g
# Experiment: SPR (Biacore 8K), antibody captured via anti-human Fc
# Description: The equilibrium dissociation constant of binding of CD3 antibodies to human CD3e/g antigen (purchased from ACRO, catalog number CDG-H52W5) was determined by kinetic binding method using Biacore 8K (GE) system. Through the capture method, the carboxylated dextran surface of CM5 chip was first activated with NHS (N-hydroxysuccinimide) and EDC (1-(3-dimethylaminopropyl)-3-ethylcarbodiimide hydrochloride), and then added with an anti-human IgG (Fc) antibody, the free amino group of which could form an amide bond with the activated carboxyl group, thereby being fixed on the chip surface. The anti-human IgG (Fc) antibody could bind to the Fc end of CD3 antibodies to capture the antibodies, and then a series of concentrations of antigen were added to obtain the binding and dissociation curves of antibody and antigen, and the corresponding kinetic constants were calculated by Biacore Evaluation software, as shown in the table below.
Binder,Kd [nM],koff [s⁻¹],kon [M⁻¹ s⁻¹]
B1,15.7,0.00452,288000
B2,35.2,0.0121,343000
B3,94.5,0.0354,375000
B4,10.8,0.00303,281000
B5,16.6,0.00655,394000
B6,22.6,0.00896,397000
B7,22.8,0.00722,316000
B8,25.8,0.00835,324000
B9,19.7,0.00624,317000
B10,16.8,0.00497,296000
B11,18.6,0.00382,205000
B12,18.6,0.00189,101000
B13,7.57,0.00126,167000
B14,33.9,0.00691,204000
B15,26.1,0.00573,219000
B16,14.5,0.00152,105000
B17,20.6,0.00588,285000
B18,17.4,0.00487,280000
B19,21.5,0.00269,125000
